The text below walks through data of US20250099587A1 (KELONIA THERAPEUTICS, published 2025).

The test deals with T1, recombinant, phycoerythrin (PE) labeled, BCMA extracellular domain-FC fusion protein (Homo sapiens (Human), UniProt Q02223 1-54, phycoerythrin (PE) label).
T1 construct: The whole entry is named here; only the extracellular domain stood in the assay; also called BCMA-PE; not shown: Fc part of the staining reagent
T1 sequence: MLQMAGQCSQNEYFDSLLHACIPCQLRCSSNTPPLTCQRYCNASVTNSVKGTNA
Put plainly: flow cytometry of transduced PBMCs stained with BCMA-PE (PE-labeled BCMA extracellular domain-Fc). The procedure:
5×10⁵ human PBMCs were plated in each well of a 24-well plate. Cells were transduced with recombinant lentiviruses LV 1 to LV 19 at a MOI 2 based on the Jurkat functional titer, or a 0.5 mL volumetric transduction if MOI 2 was not achievable. Seven days post-transduction, PBMCs were harvested and stained with BCMA-PE and analyzed by flow cytometry to assess the percentage of anti-BCMA CAR expressing cells. FIG. 2B.

Substitutions are numbered along the chain they refer to.

B1: anti-BCMA CAR of recombinant lentivirus LV 12 (SEQ ID NO: 276) (receptor)
chain: EVQLLESGGGLVQPGGSLRLSCAASGFTFEDYAMSWFRQAPGKEREGVSAISGKGGSTYYADSVKGRFTISRDNSKNTLYLQMNSLRAEDTAVYYCAVLDEEAGAEGGYWGQGTQVTVSSTTTPAPRPPTPAPTIASQPLSLRPEACRPAAGGAVHTRGLDFACDIYIWAPLAGTCGVLLLSLVITLYCKRGRKKLLYIFKQPFMRPVQTTQEEDGCSCRFPEEEEGGCELRVKFSRSADAPAYQQGQNQLYNELNLGRREEYDVLDKRRGRDPEMGGKPRRKNPQEGLYNELQKDKMAEAYSEIGMKGERRRGKGHDGLYQGLSTATKDTYDALHMQALPPR
As to B1, the binding result is on record as “binds”.

B2: anti-BCMA CAR of recombinant lentivirus LV 13 (SEQ ID NO: 277) (receptor)
chain: B1 chain with E30D, D31R, G53T, K54S, G56D
notes: also called LV 13.1 to LV 13.9
On to B2, for which the binding result is “binds”.

B3: anti-BCMA CAR of recombinant lentivirus LV 7 (SEQ ID NO: 268) (receptor)
chain: DIQMTQSPSSLSASVGDRVTITCRASQSISSYLNWYQQKPGKAPKLLIYAASSLQSGVPSRFSGSGSGTDFTLTISSLQPEDFATYYCQQAHSSPITFGGGTKVEIKGGGGSGGGGSGGGGSGGGGSEVQLLESGGGLVQPGGSLRLSCAASGFTFSNYAMSWVRQAPGKGLEWVSAISGSGGSTYYADSVKGRFTISRDNSKNTLYLQMNSLRAEDTAVYYCARPGDGYYEGVYFDYWGQGTLVTVSSTTTPAPRPPTPAPTIASQPLSLRPEACRPAAGGAVHTRGLDFACDIYIWAPLAGTCGVLLLSLVITLYCKRGRKKLLYIFKQPFMRPVQTTQEEDGCSCRFPEEEEGGCELRVKFSRSADAPAYQQGQNQLYNELNLGRREEYDVLDKRRGRDPEMGGKPRRKNPQEGLYNELQKDKMAEAYSEIGMKGERRRGKGHDGLYQGLSTATKDTYDALHMQALPPR
In the case of B3, the binding result was “binds”.

B4: anti-BCMA CAR of recombinant lentivirus LV 1 (SEQ ID NO: 256) (receptor)
chain: EIVLTQSPATLSLSPGERATLSCRASQSVSSYLAWYQQKPGQAPRLLIYDASNRATGIPARFSGSGSGTDFTLTISSLEPEDFAVYYCQQRVVYPITFGGGTKVEIKGGGGSGGGGSGGGGSGGGGSQITLKESGPTLVKPTQTLTLTCTFSGFSLSTSGVGVGWIRQPPGKALEWLALIYWNDEKRYSPSLKSRLTITKDTSKNQVVLTMTNMDPVDTAVYYCARDEYGGFDIWGQGTMVTVSSTTTPAPRPPTPAPTIASQPLSLRPEACRPAAGGAVHTRGLDFACDIYIWAPLAGTCGVLLLSLVITLYCKRGRKKLLYIFKQPFMRPVQTTQEEDGCSCRFPEEEEGGCELRVKFSRSADAPAYQQGQNQLYNELNLGRREEYDVLDKRRGRDPEMGGKPRRKNPQEGLYNELQKDKMAEAYSEIGMKGERRRGKGHDGLYQGLSTATKDTYDALHMQALPPR
As for B4, the binding result is “binds”.

B5: anti-BCMA CAR of recombinant lentivirus LV 2 (SEQ ID NO: 258) (receptor)
chain: B4 chain with V92F, V93D, E185D
On to B5, for which the binding result is “binds”.

B6: anti-BCMA CAR of recombinant lentivirus LV 15 (SEQ ID NO: 279) (receptor)
chain: EVQLLESGGGLVQPGGSLRLSCAASGFTFDSYTMSWYRQAPGKERELVSAISGHGDSTYYADSVKGRFTISRDNSKNTLYLQMNSLRAEDTAVYYCTRISITTEWLAGDYWGQGTQVTVSSTTTPAPRPPTPAPTIASQPLSLRPEACRPAAGGAVHTRGLDFACDIYIWAPLAGTCGVLLLSLVITLYCKRGRKKLLYIFKQPFMRPVQTTQEEDGCSCRFPEEEEGGCELRVKFSRSADAPAYQQGQNQLYNELNLGRREEYDVLDKRRGRDPEMGGKPRRKNPQEGLYNELQKDKMAEAYSEIGMKGERRRGKGHDGLYQGLSTATKDTYDALHMQALPPR
Regarding B6, the binding result is “binds”.

B7: anti-BCMA CAR of recombinant lentivirus LV 9 (SEQ ID NO: 273) (receptor)
chain: EVQLLESGGGLVQPGGSLRLSCAASGFTFGSEAMSWVRQAPGKERELVSAISGSGEVTYYADSVKGRFTISRDNSKNTLYLQMNSLRAEDTAVYYCQRLVEAKRHWGQGTQVTVSSTTTPAPRPPTPAPTIASQPLSLRPEACRPAAGGAVHTRGLDFACDIYIWAPLAGTCGVLLLSLVITLYCKRGRKKLLYIFKQPFMRPVQTTQEEDGCSCRFPEEEEGGCELRVKFSRSADAPAYQQGQNQLYNELNLGRREEYDVLDKRRGRDPEMGGKPRRKNPQEGLYNELQKDKMAEAYSEIGMKGERRRGKGHDGLYQGLSTATKDTYDALHMQALPPR
notes: also called LV 9.1 to LV 9.9
Take B7: the binding result is “binds”.

B8: anti-BCMA CAR of recombinant lentivirus LV 10 (SEQ ID NO: 274) (receptor)
chain: EVQLLESGGGLVQPGGSLRLSCAASGFTFESEAMSWYRQAPGKERELVSVITSEGSTYYADSVKGRFTISRDNSKNTLYLQMNSLRAEDTAVYYCAHIEWETRLNWGQGTQVTVSSTTTPAPRPPTPAPTIASQPLSLRPEACRPAAGGAVHTRGLDFACDIYIWAPLAGTCGVLLLSLVITLYCKRGRKKLLYIFKQPFMRPVQTTQEEDGCSCRFPEEEEGGCELRVKFSRSADAPAYQQGQNQLYNELNLGRREEYDVLDKRRGRDPEMGGKPRRKNPQEGLYNELQKDKMAEAYSEIGMKGERRRGKGHDGLYQGLSTATKDTYDALHMQALPPR
On to B8, for which the binding result was “binds”.

B9: anti-BCMA CAR of recombinant lentivirus LV 5 (SEQ ID NO: 263) (receptor)
chain: QVQLVESGGGLVKPGGSLRLSCAASGFTFSDYYMSWIRQAPGKGLEWVSYISSSGSTIYYADSVKGRFTISRDNAKNSLYLQMNSLRAEDTAVYYCARDQGNYGVDVWGQGTTVTVSSGGGGSGGGGSGGGGSGGGGSDIQMTQSPSTLSASVGDRVTITCRASQSISSWLAWYQQKPGKAPKLLIYEASSLESGVPSRFSGSGSGTEFTLTISSLQPDDFATYYCQQSDSHPITFGGGTKVEIKTTTPAPRPPTPAPTIASQPLSLRPEACRPAAGGAVHTRGLDFACDIYIWAPLAGTCGVLLLSLVITLYCKRGRKKLLYIFKQPFMRPVQTTQEEDGCSCRFPEEEEGGCELRVKFSRSADAPAYQQGQNQLYNELNLGRREEYDVLDKRRGRDPEMGGKPRRKNPQEGLYNELQKDKMAEAYSEIGMKGERRRGKGHDGLYQGLSTATKDTYDALHMQALPPR
notes: also called LV 5.1 to LV 5.9
For the molecule B9, the binding result is given as “binds”.

B10: anti-BCMA CAR of recombinant lentivirus LV 11 (SEQ ID NO: 275) (receptor)
chain: EVQLLESGGGLVQPGGSLRLSCAASGFTFDEYTMHWFRQAPGKEREFVSAISGGGSETYYADSVKGRFTISRDNSKNTLYLQMNSLRAEDTAVYYCAAGGEEAGVGYWGQGTQVTVSSTTTPAPRPPTPAPTIASQPLSLRPEACRPAAGGAVHTRGLDFACDIYIWAPLAGTCGVLLLSLVITLYCKRGRKKLLYIFKQPFMRPVQTTQEEDGCSCRFPEEEEGGCELRVKFSRSADAPAYQQGQNQLYNELNLGRREEYDVLDKRRGRDPEMGGKPRRKNPQEGLYNELQKDKMAEAYSEIGMKGERRRGKGHDGLYQGLSTATKDTYDALHMQALPPR
B10: the binding result is given as “binds”.

B11: anti-BCMA CAR of recombinant lentivirus LV 3 (SEQ ID NO: 259) (receptor)
chain: QVQLVESGGGVVQPGRSLRLSCAASGFTFSSYGMHWVRQAPGKGLEWVAVISYEGSNKYYADSVKGRFTISRDNSKNTLYLQMNSLRAEDTAVYYCARELGDGMDVWGQGTTVTVSSGGGGSGGGGSGGGGSGGGGSEIVLTQSPATLSLSPGERATLSCRASQSVSSYLAWFQQKPGQAPRLLIYDASNRATGIPARFSGSGSGTDFTLTISSLEPEDFAVYYCQQRVDLWTFGGGTKVEIKTTTPAPRPPTPAPTIASQPLSLRPEACRPAAGGAVHTRGLDFACDIYIWAPLAGTCGVLLLSLVITLYCKRGRKKLLYIFKQPFMRPVQTTQEEDGCSCRFPEEEEGGCELRVKFSRSADAPAYQQGQNQLYNELNLGRREEYDVLDKRRGRDPEMGGKPRRKNPQEGLYNELQKDKMAEAYSEIGMKGERRRGKGHDGLYQGLSTATKDTYDALHMQALPPR
notes: also called LV 3.1 to LV 3.9
With B11, the binding result is “binds”.

B12: anti-BCMA CAR of recombinant lentivirus LV 18 (SEQ ID NO: 283) (receptor)
chain: EVQLLESGGGLVQPGGSLRLSCAASGFTFSSEGMSWVRQAPGKERELVSAISGSGDHTYYADSVRGRFTISRDNSKNTLYLQMNSLRAEDTAVYYCNALEGGPTTAIQPGGPDYWGQGTQVTVSSTTTPAPRPPTPAPTIASQPLSLRPEACRPAAGGAVHTRGLDFACDIYIWAPLAGTCGVLLLSLVITLYCKRGRKKLLYIFKQPFMRPVQTTQEEDGCSCRFPEEEEGGCELRVKFSRSADAPAYQQGQNQLYNELNLGRREEYDVLDKRRGRDPEMGGKPRRKNPQEGLYNELQKDKMAEAYSEIGMKGERRRGKGHDGLYQGLSTATKDTYDALHMQALPPR
Turning to B12, the binding result is recorded as “binds”.

B13: anti-BCMA CAR of recombinant lentivirus LV 8 (SEQ ID NO: 270) (receptor)
chain: DIQMTQSPSSLSASVGDRVTITCQASQDIANYLNWYQQKPGKAPKLLIYDASNLETGVPSRFSGSGSGTDFTFTISSLQPEDIATYYCQQHFNLPLTFGGGTKVEIKGGGGSGGGGSGGGGSGGGGSQITLKESGPTLVKPTQTLTLTCTFSGFSLSTSGVGVGWIRQPPGKALEWLALIYWNDEKRYSPSLKSRLTITKDTSKNQVVLTMTNMDPVDTAVYYCAREGSHDYKSSNWFDPWGQGTLVTVSSTTTPAPRPPTPAPTIASQPLSLRPEACRPAAGGAVHTRGLDFACDIYIWAPLAGTCGVLLLSLVITLYCKRGRKKLLYIFKQPFMRPVQTTQEEDGCSCRFPEEEEGGCELRVKFSRSADAPAYQQGQNQLYNELNLGRREEYDVLDKRRGRDPEMGGKPRRKNPQEGLYNELQKDKMAEAYSEIGMKGERRRGKGHDGLYQGLSTATKDTYDALHMQALPPR
notes: also called LV 8.1 to LV 8.9
For the molecule B13, the binding result was “binds”.
